Reference: PMC8585875

Key:
[1] = target: H6-Rap80(35-124)-S18C-C70S-C121S-7A-Linker, Atto488-labelled (human) (UniProt Q96RL1); test: fluorescence polarisation; fluorescence anisotropy; hybrid chain titrated to 300 nM Atto488-labelled Rap80(35-124); 20 mM Tris pH 6.8, 100 mM NaCl, 4 mM DTT; single-site binding model
[2] = target: H6-Rap80(1-137)-7A-Linker (human) (UniProt Q96RL1); test: pull-down; H6-Rap80(1-137)-7A-Linker on Ni-NTA agarose; 3.5 µM hybrid chain in 50 µl; 50 mM TRIS pH 7.5, 150 mM NaCl, 2 mM TCEP, 0.1% NP-40; 1 h at 4 °C; Coomassie SDS-PAGE, densitometry normalised to Rap80

Row | Kd [1] [µM] | fold affinity against the linearly linked hybrid chain (densitometry of the pull-down) [2] [fold] | Substance
1 | 1.2 | – | linear diUb-SUMO2 hybrid chain, wt/LPT-linked (from UniProt P0CG48 1-76; P0CG48 1-76) (complex)
2 | – | 2 | K63-diUb-K21-SUMO2 hybrid chain (Srt2A/Srt5M-generated) (from UniProt P0CG48 1-76; P0CG48 1-76; P61956 1-95) (complex)
